Results on 5 molecules are retold here after US20060160743A1 (SANFORD BURNHAM MEDICAL RESEARCH INSTITUTE, published 2006).

The target in experiment [1] is T1, murine bladder cancer-associated protein homolog (bc10), full length (murine, UniProt P62951 1-87).
T1 construct: Expressed from full-length cDNA in a pMH6-derived plasmid in 293T cells
T1 sequence: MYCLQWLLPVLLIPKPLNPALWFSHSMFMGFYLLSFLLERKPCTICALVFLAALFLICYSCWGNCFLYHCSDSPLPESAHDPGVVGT
Briefly: competition: free peptide against … phage on bc10-transfected 293T cells. The protocol:
(§1) Receptor transfections and phage binding assays were performed as follows. 293T cells were transfected with pMH6-derived plasmids (Roche Diagnostics; Indianapolis, Ind.) encoding HLP/CRIP2, Sigirr/TIR8, MpcII-3-related protein and bc10 using the Fugene transfection reagent (Roche Diagnostics). Briefly, 10 μg of plasmid was mixed with 700 μl of serum-free DMEM and 30 μl of Fugene transfection reagent and incubated for 15 minutes at room temperature before the mixture was added to cells. After forty-eight hours, cells were detached from culture dishes using EDTA and washed once with PBS. Phage displaying CRPPR (SEQ ID NO: 1), CKRAVR (SEQ ID NO: 7), […] (SEQ ID NO: 11) or […] (SEQ ID NO: 12) and nonrecombinant control phage (1×10⁹ p.f.u) were incubated with transfected cells for two hours at 4° C. Unbound phage were removed by five washes with 1% BSA in PBS. Bound phage were rescued by addition of bacteria; binding efficiencies were determined by plaque assay as described above.
(§2) Peptides for competition assays were synthesized at The Burnham Institute peptide facility using Fmoc chemistry in a solid-phase synthesizer prior to purification by HPLC and confirmation of their identity by mass spectrometry. […] After five washes with 1% PBS, bound phage were rescued and quantitated by plaque assay.

For experiment [2], the target named is T2, receptor clone 36 (entire coding sequence of unnamed RIKEN Fantom protein product putatively similar to … (murine, UniProt Q9CZB0 1-169)).
T2 construct: also called MpcII-3-related protein; not shown: fusion partner encoded by the target vector of the mouse heart cDNA library (BacterioMatch two-hybrid); not described
T2 sequence: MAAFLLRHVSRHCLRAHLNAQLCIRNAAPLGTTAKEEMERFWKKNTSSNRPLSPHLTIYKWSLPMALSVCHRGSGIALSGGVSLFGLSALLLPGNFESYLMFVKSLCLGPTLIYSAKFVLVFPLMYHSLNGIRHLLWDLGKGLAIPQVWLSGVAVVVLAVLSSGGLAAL
Briefly: bacterial two-hybrid (BacterioMatch), peptide bait against heart cDNA target clone. The protocol:
(§3) PCR products were digested with EcoRI and XhoI, and subcloned into the bait pBT plasmid (Stratagene; La Jolla, Calif.) to generate a recombinant library of baits designated “pBT-hp.” pBT-hp plasmids were transformed into XL1-Blue MRF' Kan competent cells, and 2 μl or 5 μl of cells plated on 100 mm LB-chloramphenicol plates to determine the total number of primary transformants. The remaining transformants were pooled and plated on 150 mm LB-chloramphenicol plates. […] The plates were then scraped, and bacteria harvested. After plating 2 μl and 5 μl of the harvested library in order to determine the size of the amplified library, the pool of pBT-hp plasmids was purified from the pooled bacteria using a commercially available maxiprep DNA column. Purified DNA was used to transform BacterioMatch® Two-Hybrid System reporter strain competent cells according to the manufacturer's instructions (Stratagene; La Jolla, Calif.).
(§4) Bacterial two-hybridization experiments were performed with the BacterioMatch® Two-Hybrid System (Stratagene) according to the manufacturer's instructions. Briefly, pBT-hp and heart cDNA library plasmids were co-transformed using 50 ng each plasmid. Aliquots (100 μl) of co-transformants were plated on selective LB plates (500 μg/ml carbenicillin) and incubated at 37° C. for 20 hours before scoring the plates for growth. […]

Experiment [3] addresses T3, murine cysteine-rich protein 2 / heart LIM-protein (HLP/CRIP2), full length (murine, UniProt Q9DCT8 1-208).
T3 construct: also called ESP1
T3 sequence: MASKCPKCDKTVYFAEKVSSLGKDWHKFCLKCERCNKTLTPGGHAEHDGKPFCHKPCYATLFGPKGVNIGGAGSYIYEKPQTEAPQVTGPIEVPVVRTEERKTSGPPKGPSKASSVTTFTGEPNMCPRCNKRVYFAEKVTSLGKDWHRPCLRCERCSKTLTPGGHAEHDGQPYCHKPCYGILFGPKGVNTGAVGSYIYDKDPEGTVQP
Briefly: competition: free peptide against CRPPR phage on HLP/CRIP2-transfected 293T cells. As for the experimental part:
as §1, §2

For experiment [4], the target named is T4, receptor clone 5 (carboxy-terminal 92 amino acids, residues 117 to 208, of heart LIM-protein / cysteine-rich … (murine, UniProt P36201 117-208 (rat entry))).
T4 construct: Target clone of the bacterial two-hybrid screen; also called HLP clone; HLP/CRIP2 fragment; not shown: fusion partner encoded by the target vector of the mouse heart cDNA library (BacterioMatch two-hybrid); not described
T4 sequence: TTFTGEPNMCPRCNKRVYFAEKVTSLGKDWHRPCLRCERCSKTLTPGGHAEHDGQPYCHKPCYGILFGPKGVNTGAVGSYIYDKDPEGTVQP
The experiment can be described thus: bacterial two-hybrid (BacterioMatch), peptide bait against heart cDNA target clone. As for the experimental part:
as §3, §4

Experiment [5] deals with T5, murine single Ig IL-1 receptor related protein (Sigirr/TIR8), full length (murine, UniProt Q9JLZ8 1-409).
T5 construct: Expressed from full-length cDNA in a pMH6-derived plasmid in 293T cells
T5 sequence: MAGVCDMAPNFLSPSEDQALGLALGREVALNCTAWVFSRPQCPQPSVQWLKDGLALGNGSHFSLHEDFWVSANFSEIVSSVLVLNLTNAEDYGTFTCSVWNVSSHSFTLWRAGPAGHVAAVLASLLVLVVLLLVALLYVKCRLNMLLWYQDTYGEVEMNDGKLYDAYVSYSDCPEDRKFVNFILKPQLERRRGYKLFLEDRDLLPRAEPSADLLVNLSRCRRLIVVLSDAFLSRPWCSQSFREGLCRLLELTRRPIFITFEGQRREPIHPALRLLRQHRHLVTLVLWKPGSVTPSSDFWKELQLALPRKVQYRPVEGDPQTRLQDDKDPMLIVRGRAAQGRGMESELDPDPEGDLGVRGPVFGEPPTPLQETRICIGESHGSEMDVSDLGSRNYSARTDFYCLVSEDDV
Briefly: competition: free peptide against CKRAVR phage on Sigirr/TIR8-transfected 293T cells. The protocol:
as §1, §2

Where no end group is shown, it is not given here.

B1: free synthetic peptide CPKTRRVPC (SEQ ID NO: 12) (peptide)
peptide: CPKTRRVPC
notes: also called cognate peptide
As to B1, the binding result in experiment [1] is reported as “binds”.

B2: CRSTRANPC (SEQ ID NO: 11), peptide insert in bait plasmid pBT-hp (peptide)
chain: CRSTRANPC
modifications: cysteine pairing not given here; also: part of pBT bait fusion protein, position of partner not given here
notes: not shown: fusion partner encoded by bait plasmid pBT (BacterioMatch two-hybrid); not described, position relative to the peptide n
For B2, in experiment [2], the binding result is on record as “binds”.

B3: free synthetic peptide CRPPR (SEQ ID NO: 1) (peptide)
peptide: CRPPR
notes: also called CRPPR peptide
In the case of B3, the binding result in experiment [3] is “binds”.

B4: CRPPR (SEQ ID NO: 1), peptide insert in bait plasmid pBT-hp (peptide)
chain: CRPPR
notes: Hybrid bait protein of the bacterial two-hybrid screen; not shown: fusion partner encoded by bait plasmid pBT (BacterioMatch two-hybrid); not described, position relative to the peptide n
As for B4, the binding result in experiment [4] is recorded as “binds”.

B5: free synthetic peptide CKRAVR (SEQ ID NO: 7) (peptide)
peptide: CKRAVR
notes: also called free peptide CKRAVR; cognate peptide
Consider B5, for which the binding result in experiment [5] is listed as “binds”.
